Data reported in patent US6509447B1, “G protein chimeras and methods of screening compounds” (Glaxo Welcome Inc., priority 1997, dated 2003).

Tests used:
[1] = target: T1, purinergic nucleotide receptor, P2Y2 (Homo sapiens, UniProt P41231); experiment: Reverse halo assay for FUS1-HIS3 expression, MMY9 cells, P2Y2; format: cell-based; conditions: MMY9 cells with pRS314-GPA1 and P2Y2 receptor, 100 nmol UTP
T1 construct: expressed in transfected cells; host or cells: Saccharomyces cerevisiae strains MMY9 and MMY11, plasmid pDT-PGK-P2Y2
T1 sequence (P41231 whole entry): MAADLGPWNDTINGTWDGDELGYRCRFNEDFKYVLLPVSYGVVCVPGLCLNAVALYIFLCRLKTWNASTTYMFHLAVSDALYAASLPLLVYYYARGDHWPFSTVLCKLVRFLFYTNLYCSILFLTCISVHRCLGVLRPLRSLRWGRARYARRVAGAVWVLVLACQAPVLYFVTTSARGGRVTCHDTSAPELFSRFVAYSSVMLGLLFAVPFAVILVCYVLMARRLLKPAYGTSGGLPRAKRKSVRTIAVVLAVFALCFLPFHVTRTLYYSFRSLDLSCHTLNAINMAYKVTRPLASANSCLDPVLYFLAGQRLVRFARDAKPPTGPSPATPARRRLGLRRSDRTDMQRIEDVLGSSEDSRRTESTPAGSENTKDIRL
Method: (§1) Assay for FUS1-HIS3 Expression. Reverse halo assays were carried out by growing MMY9 cells to early stationary phase (OD600≈4) in liquid SC-glucose (2%) medium lacking tryptophan and uracil. A uniform layer of cells (5×10^7) was plated to 22.5 cm by 22.5 cm bioassay dishes (Nunc) in 100 ml SC-glucose agar (1%) equilibrated to 50° C. This medium lacked tryptophan, uracil and histidine, and was supplemented with 10 mM 3-aminotriazole, and buffered to pH 7.0 with 0.1M sodium phosphate. Antibiotic discs were placed on the solidified agar, and a volume of agonist solution (1-5 μl) was applied to each disc. Plates were incubated at 30° C. for 3 days.
(§2) The four receptors were: the melatonin ML1B receptor, the serotonin 5HT1A receptor, the somatostatin SST2 receptor and the purinergic nucleotide receptor, P2Y2. […] Activation of the pheromone response pathway was monitored with two integrated reporter genes: […] allowing a growth readout in medium lacking histidine, and FUS1-lacZ allowing a β-galactosidase readout. […] Agonist-dependent activation of FUS1-HIS3 was determined by reverse halo assay in which agonists were applied to the filter discs in the arrangement shown in panel A, in quantities as follows: 3 nmol of somatostatin-14 (S-14); 40 nmol of melatonin (Mel); 3 nmol of α-factor; 100 nmol of UTP; 40 nmol of serotonin (5-HT). […]

[2] = target: T2, somatostatin SST2 receptor (Homo sapiens, UniProt P30874); experiment: Reverse halo assay for FUS1-HIS3 expression, MMY9 cells, SST2; format: cell-based; conditions: MMY9 cells with pRS314-GPA1 and SST2 receptor, 3 nmol somatostatin-14
T2 construct: expressed in transfected cells; host or cells: Saccharomyces cerevisiae strains MMY9 and MMY11, plasmid pFL61-SST2, PGK1 promoter
T2 sequence (P30874 whole entry): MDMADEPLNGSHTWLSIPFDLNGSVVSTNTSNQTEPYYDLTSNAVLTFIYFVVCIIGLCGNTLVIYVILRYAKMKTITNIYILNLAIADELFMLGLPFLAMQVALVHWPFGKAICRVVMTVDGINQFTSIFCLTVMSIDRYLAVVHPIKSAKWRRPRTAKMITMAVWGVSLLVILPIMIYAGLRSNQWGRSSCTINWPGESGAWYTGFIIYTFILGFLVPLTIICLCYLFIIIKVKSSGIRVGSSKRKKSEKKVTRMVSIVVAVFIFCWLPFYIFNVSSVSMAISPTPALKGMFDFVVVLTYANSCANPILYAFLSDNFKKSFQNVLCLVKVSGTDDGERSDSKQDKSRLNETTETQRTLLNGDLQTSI
Method: as §1, §2

melatonin ML1B receptor = target: T3, melatonin ML1B receptor (Homo sapiens, UniProt P49286); experiment: Reverse halo assay for FUS1-HIS3 expression, MMY9 cells, ML1B; format: cell-based; conditions: MMY9 cells with pRS314-GPA1 and ML1B receptor, 40 nmol melatonin
T3 construct: expressed in transfected cells; host or cells: Saccharomyces cerevisiae strains MMY9 and MMY11, plasmid pDT-PGK-ML1B
T3 sequence (P49286 1-362): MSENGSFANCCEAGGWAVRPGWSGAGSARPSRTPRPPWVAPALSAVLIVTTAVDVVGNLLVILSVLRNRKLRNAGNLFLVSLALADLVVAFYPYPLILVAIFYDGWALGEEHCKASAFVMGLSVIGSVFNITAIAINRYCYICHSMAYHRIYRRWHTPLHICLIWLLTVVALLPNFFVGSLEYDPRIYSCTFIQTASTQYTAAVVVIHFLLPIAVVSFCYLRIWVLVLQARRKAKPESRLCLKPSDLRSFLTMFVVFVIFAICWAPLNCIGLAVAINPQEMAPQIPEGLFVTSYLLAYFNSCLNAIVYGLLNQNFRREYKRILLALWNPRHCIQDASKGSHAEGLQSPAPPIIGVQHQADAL
Method: as §1, §2

[3] = test system: pheromone response pathway (FUS1-LacZ; Ste2p receptor); experiment: ONPG β-galactosidase assay of FUS1-LacZ in extracts of MMY9 cells; format: cell-based, Saccharomyces cerevisiae; conditions: G protein expressed from GPA1 promoter
Method: Assays for FUS1-IacZ Expression. β-galactosidase activities in cell extracts were measured with two assays. In the first assay (ONPG assay), cell extracts were incubated with the substrate ONPG as described by (37). Units were defined as (A420×1000)/(OD600x×t×v) (25). In the chemiluminescent assay, cells were grown to late logarithmic phase and diluted to 0.02 OD600 in 100 μl SC-WH medium in the presence or absence of 1 μM α-factor in 96-well microtitre plates. After incubation (30° C.; 6 hours), 20 μl of cells were removed and mixed with 20 μl assay mix (125 mM sodium phosphate pH 7.6, 15 mM MgSO4, 200 μM Galacton-Star β-galactosidase substrate (Tropix), 10% (v/v) Sapphire II (Tropix), 1 U/μl oxalyticase (Enzogenetics)). After incubation (30° C.; 1 hr) chemiluminescence was determined in a Top-count scintillation counter (Packard).
The Gα15/Gα16 subunits are reported to interact with a much broader range of receptors than is typical for a Gα subunit, and have the ability to couple receptors which normally interact with Gαi, Gαs or Gαq (26). […] We constructed a plasmid encoding a Gpa1/Gα16 C-terminal domain chimera (pRS314-Gpa1/Gα16; FIG. 5b); FIG. 6h) derived from the same centromeric vector as used for expression of functional chimeras described above. The level of FUS1-LacZ induction in MMY9 cells expressing the Gpa1/Gα16 chimera was determined by preparing cell extracts, and incubating them with the LacZ substrate o-Nitrophenyl β-D-galactopyranoside (ONPG; see Materials and Methods). Gpa1/Gα16 reduced FUS1-LacZ expression resulting in β-galactosidase activity of 79+/−8 units (Table 2). This level was intermediate between the activity of control cells transformed with vector (239+/−30 units), in which the pathway is constitutively activated due to the absence of Gα, and the basal activity in cells producing wild-type Gpa1p (19+/−4 units).

B1: Gpa1p: endogenous yeast Gα subunit, product of the GPA1 gene (protein, UniProt P08539 2-472, looked up)
Guanine nucleotide-binding …: GCTVSTQTIGDESDPFLQNKRANDVIEQSLQLEKQRDKNEIKLLLLGAGESGKSTVLKQLKLLHQGGFSHQERLQYAQVIWADAIQSMKILIIQARKLGIQLDCDDPINNKDLFACKRILLKAKALDYINASVAGGSDFLNDYVLKYSERYETRRRVQSTGRAKAAFDEDGNISNVKSDTDRDAETVTQNEDADRNNSSRINLQDICKDLNQEGDDQMFVRKTSREIQGQNRRNLIHEDIAKAIKQLWNNDKGIKQCFARSNEFQLEGSAAYYFDNIEKFASPNYVCTDEDILKGRIKTTGITETEFNIGSSKFKVLDAGGQRSERKKWIHCFEGITAVLFVLAMSEYDQMLFEDERVNRMHESIMLFDTLLNSKWFKDTPFILFLNKIDLFEEKVKSMPIRKYFPDYQGRVGDAEAGLKYFEKIFLSLNKTNKPIYVKRTCATDTQTMKFVLSAVTDLIIQQNLKKIGII
[1]
  agonist-dependent activation of FUS1-HIS3 (halo of cell growth): responded to the agonist UTP
[2]
  agonist-dependent activation of FUS1-HIS3 (halo of cell growth): responded to somatostatin
Melatonin ML1B receptor
  agonist-dependent activation of FUS1-HIS3 (halo of cell growth): activated FUS1-HIS3 in response to melatonin
[3]
  β-galactosidase activity (FUS1-LacZ), No Alpha Factor: 19+/−4 units
  β-galactosidase activity (FUS1-LacZ), Plus Alpha Factor: 273 +/− 49 units
[3]; listed as GPA1
  β-galactosidase activity (FUS1-LacZ), No Alpha Factor: 19 +/− 4 units
